# Reference: patent publication US20250230251A1 (Bristol-Myers Squibb, published 2025)
# Read-outs that look alike come from different tables or passages of the source.
# T1: huIL-18Rβ-HisAvi (human, UniProt O95256 20-356, biotinylated in the Octet blocking assay)
# T1 construct: Soluble analyte in all SPR runs; captured on streptavidin sensors in the Octet assay; also called human IL-18Rβ; human IL-18Rβ-Avi-His
# T1 sequence: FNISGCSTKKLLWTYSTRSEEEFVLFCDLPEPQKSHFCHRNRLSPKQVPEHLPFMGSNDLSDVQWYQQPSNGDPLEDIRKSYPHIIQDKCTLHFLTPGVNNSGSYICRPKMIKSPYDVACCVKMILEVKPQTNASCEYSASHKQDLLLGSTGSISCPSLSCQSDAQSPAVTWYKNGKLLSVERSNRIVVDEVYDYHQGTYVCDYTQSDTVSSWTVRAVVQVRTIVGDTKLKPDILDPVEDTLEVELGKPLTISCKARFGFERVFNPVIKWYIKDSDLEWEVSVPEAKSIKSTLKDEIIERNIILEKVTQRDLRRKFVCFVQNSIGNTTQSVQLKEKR
# T2: human IL-18Rβ on cells (human, UniProt O95256 20-599)
# T2 sequence: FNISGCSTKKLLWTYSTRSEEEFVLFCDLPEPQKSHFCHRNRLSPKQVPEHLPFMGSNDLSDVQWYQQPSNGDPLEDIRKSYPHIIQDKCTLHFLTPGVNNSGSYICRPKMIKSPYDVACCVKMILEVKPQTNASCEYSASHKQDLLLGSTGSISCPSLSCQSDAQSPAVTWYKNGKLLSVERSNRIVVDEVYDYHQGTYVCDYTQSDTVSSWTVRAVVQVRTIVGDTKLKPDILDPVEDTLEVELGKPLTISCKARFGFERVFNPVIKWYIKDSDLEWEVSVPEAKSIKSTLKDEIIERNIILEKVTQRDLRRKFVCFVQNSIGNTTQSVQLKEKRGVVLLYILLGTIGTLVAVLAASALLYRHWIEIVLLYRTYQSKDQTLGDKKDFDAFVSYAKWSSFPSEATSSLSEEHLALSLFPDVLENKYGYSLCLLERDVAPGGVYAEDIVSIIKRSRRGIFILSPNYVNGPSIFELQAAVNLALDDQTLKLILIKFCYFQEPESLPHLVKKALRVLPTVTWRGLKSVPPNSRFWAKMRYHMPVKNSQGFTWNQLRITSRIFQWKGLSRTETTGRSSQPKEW
# T3: cyIL-18Rβ-HisAvi (cynomolgus monkey)
# T3 construct: Soluble analyte in SPR; also called cyno IL-18Rβ; cynomolgus monkey IL-18Rβ
# T3 chain: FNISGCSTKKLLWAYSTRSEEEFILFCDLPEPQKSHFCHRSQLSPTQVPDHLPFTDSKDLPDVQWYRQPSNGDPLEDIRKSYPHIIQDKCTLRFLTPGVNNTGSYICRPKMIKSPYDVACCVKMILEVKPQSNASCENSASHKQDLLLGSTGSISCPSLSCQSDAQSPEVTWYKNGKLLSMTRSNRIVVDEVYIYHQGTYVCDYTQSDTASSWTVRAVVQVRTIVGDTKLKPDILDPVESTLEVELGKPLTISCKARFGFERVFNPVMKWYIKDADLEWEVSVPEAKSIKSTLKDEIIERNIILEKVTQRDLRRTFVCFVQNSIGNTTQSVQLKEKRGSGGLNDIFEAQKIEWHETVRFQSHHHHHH
# B1: P8 (antibody, human IgG1, kappa)
# heavy: QVQLVQSGAEVKKPGASVRVSCKASGYTFTSYYMHWVRQAPGQGLEWMGIINPRGGYTTYAQKFQGRVTMTRDTSTSTVYMELSSLRSEDTAVYYCAKEGRVSPTDYYGMDVWGQGTTVTVSSASTKGPSVFPLAPSSKSTSGGTAALGCLVKDYFPEPVTVSWNSGALTSGVHTFPAVLQSSGLYSLSSVVTVPSSSLGTQTYICNVNHKPSNTKVDKRVEPKSCDKTHTCPPCPAPEAEGAPSVFLFPPKPKDTLMISRTPEVTCVVVDVSHEDPEVKFNWYVDGVEVHNAKTKPREEQYNSTYRVVSVLTVLHQDWLNGKEYKCKVSNKALPAPIEKTISKAKGQPREPQVYTLPPSREEMTKNQVSLTCLVKGFYPSDIAVEWESNGQPENNYKTTPPVLDSDGSFFLYSKLTVDKSRWQQGNVFSCSVMHEALHNHYTQKSLSLSPG
# light: not shown
# notes: Human IgG
# B2: P21-V1 (antibody, human IgG1, kappa, V domains shown)
# VH: QVQLQESGPGLVKPSETLSLTCTVSGGSISNYYWTWIRQPPGKGLEWIGYISDSGSTNYNPSLKSRVTISVDTSKNQFSLKLSSVTAADTAVYYCARETIVVRGFYFYVMDVWGQGTTVTVSS
# VL: AIQLTQSPSSLSASVGDRVTITCRASQGISSALAWYQQKPGKAPKLLIYEASNWESGVPSRFSGSGSGTDFTLTISSLQPEDFATYYCQQFNSYPWTFGQGTKVEIKR
# notes: Variant of P21
# How the values were obtained:
# [1] = target: T1, huIL-18Rβ-HisAvi; assay: SPR T200, mAb on anti-hFc, 37C, pH 7.4
# [2] = target: T1, huIL-18Rβ-HisAvi; assay: SPR T200, pH 7.4; sample stored at pH 8, 4 w 4C
# [3] = target: T1, huIL-18Rβ-HisAvi; assay: SPR T200, pH 7.4; sample stored at pH 8, T0
# [4] = target: T1, huIL-18Rβ-HisAvi; assay: SPR T200, mAb on anti-hFc, 37C, pH 7.4; remark: listed apart in the source
# [5] = target: T1, huIL-18Rβ-HisAvi; assay: SPR T200, pH 5 against pH 7.4
# [6] = target: T2, human IL-18Rβ on cells; assay: cell-based or functional assay
# [7] = target: T1, huIL-18Rβ-HisAvi; assay: SPR Biacore T200, mAb captured on anti-human Fc, huIL-18Rβ-HisAvi as analyte, PBST pH 5.5, 37 °C, 1:1 Binding fit
# [8] = target: T1, huIL-18Rβ-HisAvi; assay: SPR screen, 1:1 fit
# [9] = target: T1, huIL-18Rβ-HisAvi; assay: SPR T200, mAb on anti-hFc, 37C, pH 6
# [10] = target: the molecule itself; assay: clone self-interaction BLI, antibody on AHQ sensor against 1 µM of the same antibody
# [11] = target: T1, huIL-18Rβ-HisAvi; assay: SPR T200, pH 7.4; sample stored at pH 8, 4 w 40C
# [12] = target: T1, huIL-18Rβ-HisAvi; assay: SPR T200, pH 7.4; sample stored at pH 6, 4 w 40C
# [13] = target: T2, human IL-18Rβ on cells; assay: cell-based or functional assay; remark: listed apart in the source
# [14] = target: T1, huIL-18Rβ-HisAvi; assay: SPR T200, mAb on anti-hFc, 37C, pH 5
# [15] = target: T1, huIL-18Rβ-HisAvi; assay: SPR Biacore T200, mAb captured on anti-human Fc, huIL-18Rβ-HisAvi as analyte, PBST pH 6.0, 37 °C, 1:1 Binding fit
# [16] = target: T1, huIL-18Rβ-HisAvi; assay: SPR T200, mAb on anti-hFc, 37C, pH 7.4; sample stored at pH 6, T0
# [17] = target: T1, huIL-18Rβ-HisAvi; assay: SPR T200, pH 7.4; sample stored at pH 6, 4 w 4C
# [18] = target: T2, human IL-18Rβ on cells; assay: cell-based or functional assay; remark: listed apart in the source
# [19] = target: T2, human IL-18Rβ on cells; assay: cell-based or functional assay; remark: listed apart in the source
# [20] = target: T1, huIL-18Rβ-HisAvi; assay: SPR T200, pH 7; sample 4 w 4C
# [21] = target: T1, huIL-18Rβ-HisAvi; assay: SPR T200, pH 7; sample 2 w 40C
# [22] = target: T1, huIL-18Rβ-HisAvi; assay: SPR T200, mAb on anti-hFc, 37C, pH 7.4; remark: listed apart in the source
# [23] = target: T3, cyIL-18Rβ-HisAvi; assay: SPR T200, mAb on anti-hFc, 37C, pH 7.4
# [24] = target: T1, huIL-18Rβ-HisAvi; assay: SPR T200, pH 7; sample T0
# [25] = target: T1, huIL-18Rβ-HisAvi; assay: SPR T200, pH 7; sample 4 w 40C
# [26] = target: T1, huIL-18Rβ-HisAvi; assay: SPR T200, mAb on anti-hFc, 37C, pH 6; remark: listed apart in the source
# [27] = target: T3, cyIL-18Rβ-HisAvi; assay: SPR T200, mAb on anti-hFc, 37C, pH 6
binder,measurement,setting,value
B1,Kd,[1],1.2 nM
same,koff,[1],0.00038 s⁻¹
same,kon,[1],310000 M⁻¹ s⁻¹
same,Kd,[2],0.81 nM
same,koff,[2],0.00043 s⁻¹
same,kon,[2],520000 M⁻¹ s⁻¹
same,Kd,[3],0.85 nM
same,koff,[3],0.00046 s⁻¹
same,kon,[3],540000 M⁻¹ s⁻¹
same,Kd,[4],0.96 nM
same,koff,[4],0.0005 s⁻¹
same,kon,[4],520000 M⁻¹ s⁻¹
same,KD ratio (KD pH 5/KD pH 7),[5],0.33
same,kd ratio (kd pH 5/kd pH 7),[5],0.57
same,"IC50, LPS+IL-12 dependent IFNg production, human whole blood",[6],0.3 nM
same,"y-max, LPS+IL-12 dependent IFNg production, human whole blood",[6],98%
same,Kd,[7],1.08 nM
same,koff,[7],0.000511 s⁻¹
same,kon,[7],472000 M⁻¹ s⁻¹
same,Kd,[8],0.094 nM
same,Kd,[9],0.18 nM
same,koff,[9],0.00024 s⁻¹
same,kon,[9],1.4e+06 M⁻¹ s⁻¹
same,Average CSI-BLI ΔResponse,[10],-0.01 nm
same,Kd,[11],0.78 nM
same,koff,[11],0.00046 s⁻¹
same,kon,[11],590000 M⁻¹ s⁻¹
same,Kd,[12],0.6 nM
same,koff,[12],0.00044 s⁻¹
same,kon,[12],730000 M⁻¹ s⁻¹
same,"IC50, LPS+IL-12 dependent IFNg production, human whole blood",[13],1.12 nM
same,Kd,[14],0.41 nM
same,koff,[14],0.00022 s⁻¹
same,kon,[14],530000 M⁻¹ s⁻¹
same,Kd,[15],1.24 nM
same,koff,[15],0.000504 s⁻¹
same,kon,[15],405000 M⁻¹ s⁻¹
same,Kd,[16],0.83 nM
same,koff,[16],0.00047 s⁻¹
same,kon,[16],570000 M⁻¹ s⁻¹
same,Kd,[17],0.8 nM
same,koff,[17],0.00045 s⁻¹
same,kon,[17],570000 M⁻¹ s⁻¹
same,"IC50, IL-18-induced IFNγ release, KG-1 cells",[18],0.3 nM
B2,"Average IC50, LPS+IL-12 dependent IFNg production, human whole blood",[19],1.23 nM
same,Kd,[20],0.24 nM
same,koff,[20],6.5e-05 s⁻¹
same,kon,[20],270000 M⁻¹ s⁻¹
same,Kd,[21],0.18 nM
same,koff,[21],4.9e-05 s⁻¹
same,kon,[21],270000 M⁻¹ s⁻¹
same,Kd,[22],0.63 nM
same,koff,[22],0.00022 s⁻¹
same,kon,[22],360000 M⁻¹ s⁻¹
same,Kd,[23],8.7 nM
same,koff,[23],0.0047 s⁻¹
same,kon,[23],540000 M⁻¹ s⁻¹
same,Kd,[24],0.26 nM
same,koff,[24],7.2e-05 s⁻¹
same,kon,[24],270000 M⁻¹ s⁻¹
same,Kd,[25],0.51 nM
same,koff,[25],0.00014 s⁻¹
same,kon,[25],280000 M⁻¹ s⁻¹
same,Kd,[26],0.37 nM
same,koff,[26],0.00017 s⁻¹
same,kon,[26],460000 M⁻¹ s⁻¹
same,Kd,[27],13 nM
same,koff,[27],0.0031 s⁻¹
same,kon,[27],250000 M⁻¹ s⁻¹
